The record followed here is paper PMC11783875.

Assay [1] concerns the target H3-PsbS (PsbS with the H3 motif I74, Y75, E76 deleted) (Arabidopsis thaliana) (UniProt Q9XF91). As to the kind of experiment: cross-linking; isolated thylakoids (60 ug Chl) in the light state (700 umol photons m^-2 s^-1); 0.1 mM DTSSP for 1 min in reaction buffer pH 8.0; SDS-PAGE and western blot with PsbS antibody; densitometry of dimer against total PsbS. A general note: A western blot detects proteins with antibodies after separation by electrophoresis.

Assay [2] has the same target. As to the kind of experiment: cross-linking; isolated thylakoids (60 ug Chl) in the recovery-2 state (darkness after illumination); 0.1 mM DTSSP for 1 min in reaction buffer pH 8.0; SDS-PAGE and western blot with PsbS antibody; densitometry of dimer against total PsbS.
Assay [3] addresses E69QE173Q-PsbS (Arabidopsis thaliana). Briefly: cross-linking; isolated thylakoids (60 ug Chl) in the dark-adapted state; 0.1 mM DTSSP for 1 min in reaction buffer pH 8.0; SDS-PAGE and western blot with PsbS antibody; densitometry of dimer against total PsbS.
Assay [4] has the same target. Briefly: cross-linking; isolated thylakoids (60 ug Chl) in the light state (700 umol photons m^-2 s^-1); 0.1 mM DTSSP for 1 min in reaction buffer pH 8.0; SDS-PAGE and western blot with PsbS antibody; densitometry of dimer against total PsbS.
The target is the same in assay [5]. Briefly: cross-linking; isolated thylakoids (60 ug Chl) in the recovery-1 state (darkness after illumination); 0.1 mM DTSSP for 1 min in reaction buffer pH 8.0; SDS-PAGE and western blot with PsbS antibody; densitometry of dimer against total PsbS.
Assay [6] shares this target. As to the kind of experiment: cross-linking; isolated thylakoids (60 ug Chl) in the recovery-2 state (darkness after illumination); 0.1 mM DTSSP for 1 min in reaction buffer pH 8.0; SDS-PAGE and western blot with PsbS antibody; densitometry of dimer against total PsbS.
Assay [7] addresses T1, PsbS protein (wild type, Arabidopsis thaliana) (Arabidopsis thaliana (endogenous in wild-type thylakoids)), Q9XF91.
T1 chain: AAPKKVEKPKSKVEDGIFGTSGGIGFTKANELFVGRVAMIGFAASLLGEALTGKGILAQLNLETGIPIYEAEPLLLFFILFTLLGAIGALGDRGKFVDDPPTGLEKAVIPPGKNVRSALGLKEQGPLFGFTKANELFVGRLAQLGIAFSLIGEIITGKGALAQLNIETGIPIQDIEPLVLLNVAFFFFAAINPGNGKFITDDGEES
Briefly: cross-linking; isolated thylakoids (60 ug Chl) in the dark-adapted state; 0.1 mM DTSSP for 1 min in reaction buffer pH 8.0; SDS-PAGE and western blot with PsbS antibody; densitometry of dimer against total PsbS. The conditions noted are these: remark: other sources report otherwise.

Assay [8] has as its target T1, PsbS protein (wild type, Arabidopsis …). As to the kind of experiment: cross-linking; isolated thylakoids (60 ug Chl) in the light state (700 umol photons m^-2 s^-1); 0.1 mM DTSSP for 1 min in reaction buffer pH 8.0; SDS-PAGE and western blot with PsbS antibody; densitometry of dimer against total PsbS. The settings on record: remark: other sources report otherwise.
Assay [9] shares this target. Briefly: cross-linking; isolated thylakoids (60 ug Chl) in the recovery-1 state (darkness after illumination); 0.1 mM DTSSP for 1 min in reaction buffer pH 8.0; SDS-PAGE and western blot with PsbS antibody; densitometry of dimer against total PsbS. The conditions noted are these: remark: other sources report otherwise.
Assay [10] shares this target. As to the kind of experiment: cross-linking; isolated thylakoids (60 ug Chl) in the recovery-2 state (darkness after illumination); 0.1 mM DTSSP for 1 min in reaction buffer pH 8.0; SDS-PAGE and western blot with PsbS antibody; densitometry of dimer against total PsbS. The settings on record: remark: other sources report otherwise.

“H3-PsbS (PsbS with the H3 motif I74, Y75, E76 deleted) (from UniProt Q9XF91 60-265) (natural protein)”: in [1], the dimer-to-monomer transition, percent lower than the WT (% lower than WT) is 50.8. In addition, in [2], the total recovery to PsbS dimers, percent of the WT level (% of the WT level) turned out to be 62.6.
For E69QE173Q-PsbS (natural protein), the cross-linked PsbS dimer content relative to total PsbS in assay [3] came out at 21.7%; in [4], 18.6%; in assay [5], 21.4%; in assay [6] it was 25.6%.

B1: PsbS protein (wild type, Arabidopsis thaliana), Q9XF91 60-265 (natural protein)
chain: T1 chain
Regarding B1, the cross-linked PsbS dimer content relative to total PsbS in [7] turned out to be 44.9%; in assay [8], 31.7%; in assay [9], 39.5%; in assay [10], 50.4%.
